We go through 94 variants from the supplement of paper PMC10567573.

B1: ATL3 (parent)
chain: YGLQGGMAFLDKRLQVKEHQHEEI
B2: PBXIP1 (parent)
chain: FGEDGIFRHDRLRFRDFVDALEDS
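Also: lentivirally expressed fusions sorted by FACS into six bins by GFP to DsRed ratio, PSI derived from sequencing read proportions per bin multiplied by bin number.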

The variants in one data set derive from B1. As to the kind of experiment: protein stability index of a GFP-peptide fusion (GPS, HEK-293T) (PSI 1-6); higher = more stable. The note with it: c terminus: a fixed tail appended.
Turning to HGLQGGMAFLDKRLQVKEHQHEEI, the protein stability index was determined as 3.51.
On to AGLQGGMAFLDKRLQVKEHQHEEI, for which the protein stability index was found to be 4.57.
With YGWQGGMAFLDKRLQVKEHQHEEI, the protein stability index is 3.64.
For YGDQGGMAFLDKRLQVKEHQHEEI, the protein stability index was found to be 2.96.
Consider YGPQGGMAFLDKRLQVKEHQHEEI, for which the protein stability index is 2.55.
On to YGRQGGMAFLDKRLQVKEHQHEEI, for which the protein stability index worked out at 3.69.
The same measure, in the same setting: with YGNQGGMAFLDKRLQVKEHQHEEI the figure was 2.45.
In the case of YGTQGGMAFLDKRLQVKEHQHEEI, the protein stability index was found to be 2.86.
For the variant YGHQGGMAFLDKRLQVKEHQHEEI, the protein stability index came to 2.81.
As for YGAQGGMAFLDKRLQVKEHQHEEI, the protein stability index amounted to 1.92.
The same measure, in the same setting: the same measure for YGKQGGMAFLDKRLQVKEHQHEEI: 2.93; for YGFQGGMAFLDKRLQVKEHQHEEI: 2.76; for YGQQGGMAFLDKRLQVKEHQHEEI: 2.73.
As for YGYQGGMAFLDKRLQVKEHQHEEI, the protein stability index stood at 2.99.
On the same count and under the same terms, the same measure for YGGQGGMAFLDKRLQVKEHQHEEI: 2.46; for YGEQGGMAFLDKRLQVKEHQHEEI: 2.37; for YGIQGGMAFLDKRLQVKEHQHEEI: 2.2.
With YGCQGGMAFLDKRLQVKEHQHEEI, the protein stability index came to 2.03.
YGMQGGMAFLDKRLQVKEHQHEEI: the protein stability index is 2.31.
As to YGLQGTMAFLDKRLQVKEHQHEEI, the protein stability index was found to be 1.73.
For the variant YGLQGVMAFLDKRLQVKEHQHEEI, the protein stability index was 2.03.
Regarding YGLQGCMAFLDKRLQVKEHQHEEI, the protein stability index came to 2.21.
For YGLQGKMAFLDKRLQVKEHQHEEI, the protein stability index turned out to be 2.46.
Turning to YGLQGRMAFLDKRLQVKEHQHEEI, the protein stability index was 2.85.
For the variant YGLQGQMAFLDKRLQVKEHQHEEI, the protein stability index is 2.95.
With YGLQGIMAFLDKRLQVKEHQHEEI, the protein stability index amounted to 2.54.
Same read-out and setting: the same measure for YGLQGHMAFLDKRLQVKEHQHEEI: 1.63.
As to YGLQGAMAFLDKRLQVKEHQHEEI, the protein stability index worked out at 3.1.
On the same count and under the same terms, with YGLQGMMAFLDKRLQVKEHQHEEI the figure was 2.26; with YGLQGDMAFLDKRLQVKEHQHEEI, 2.31.
On to YGLQGPMAFLDKRLQVKEHQHEEI, for which the protein stability index worked out at 2.65.
Regarding YGLQGLMAFLDKRLQVKEHQHEEI, the protein stability index worked out at 3.04.
YGLQGEMAFLDKRLQVKEHQHEEI: the protein stability index was 2.41.
On the same count and under the same terms, with YGLQGWMAFLDKRLQVKEHQHEEI the figure was 1.97; with YGLQGYMAFLDKRLQVKEHQHEEI, 2.34; with YGLQGNMAFLDKRLQVKEHQHEEI, 2.32.
As for YGLQGSMAFLDKRLQVKEHQHEEI, the protein stability index came to 2.13.
Consider YGLQGGMAKLDKRLQVKEHQHEEI, for which the protein stability index was 4.4.
Same read-out and setting: the same measure for YGLQGGMAELDKRLQVKEHQHEEI: 5.
For the variant YGLQGGMAMLDKRLQVKEHQHEEI, the protein stability index was determined as 4.25.
The same measure, in the same setting: with YGLQGGMATLDKRLQVKEHQHEEI the figure was 4.58; with YGLQGGMADLDKRLQVKEHQHEEI, 4.88; with YGLQGGMAWLDKRLQVKEHQHEEI, 2.26.
On the same count and under the same terms, the same measure for YGLQGGMAPLDKRLQVKEHQHEEI: 4.69; for YGLQGGMANLDKRLQVKEHQHEEI: 4.51; for YGLQGGMAILDKRLQVKEHQHEEI: 3.82.
Regarding YGLQGGMASLDKRLQVKEHQHEEI, the protein stability index is 4.49.
Still for that read-out and setting: the same measure for YGLQGGMAGLDKRLQVKEHQHEEI: 4.45.
YGLQGGMACLDKRLQVKEHQHEEI: the protein stability index was determined as 4.13.
Consider YGLQGGMAYLDKRLQVKEHQHEEI, for which the protein stability index worked out at 1.91.
As for YGLQGGMAHLDKRLQVKEHQHEEI, the protein stability index was 4.06.
On to YGLQGGMALLDKRLQVKEHQHEEI, for which the protein stability index is 3.84.
In the case of YGLQGGMAALDKRLQVKEHQHEEI, the protein stability index was 4.3.
The same measure, in the same setting: with YGLQGGMAVLDKRLQVKEHQHEEI the figure was 4.23; with YGLQGGMARLDKRLQVKEHQHEEI, 3.79; with YGLQGGMAQLDKRLQVKEHQHEEI, 4.42.
Take YGLQYGMAFLDKRLQVKEHQHEEI: the protein stability index amounted to 2.66.
As to YGLQAGMAFLDKRLQVKEHQHEEI, the protein stability index came to 1.74.
Consider YGLQVGMAFLDKRLQVKEHQHEEI, for which the protein stability index came out at 2.28.
With YGLQHGMAFLDKRLQVKEHQHEEI, the protein stability index was determined as 2.5.
As for YGLQFGMAFLDKRLQVKEHQHEEI, the protein stability index came out at 1.82.
On the same count and under the same terms, with YGLQLGMAFLDKRLQVKEHQHEEI the figure was 2.39; with YGLQMGMAFLDKRLQVKEHQHEEI, 2.1; with YGLQEGMAFLDKRLQVKEHQHEEI, 3.15.
YGLQDGMAFLDKRLQVKEHQHEEI: the protein stability index came to 2.34.
Take YGLQSGMAFLDKRLQVKEHQHEEI: the protein stability index was 2.25.
As for YGLQNGMAFLDKRLQVKEHQHEEI, the protein stability index is 2.44.
As for YGLQIGMAFLDKRLQVKEHQHEEI, the protein stability index was 2.04.
On to YGLQTGMAFLDKRLQVKEHQHEEI, for which the protein stability index is 3.18.
With YGLQQGMAFLDKRLQVKEHQHEEI, the protein stability index is 2.73.
YGLQKGMAFLDKRLQVKEHQHEEI: the protein stability index was found to be 2.4.
Same read-out and setting: the same measure for YGLQRGMAFLDKRLQVKEHQHEEI: 2.39; for YGLQPGMAFLDKRLQVKEHQHEEI: 2.65.
On to YGLQCGMAFLDKRLQVKEHQHEEI, for which the protein stability index amounted to 1.92.

The variants in the next data set derive from B2. Described as above. The note with it: c terminus: a fixed tail appended.
With FGEDGIFRHDRLRFRDFVDALEDH, the protein stability index worked out at 2.66.
Consider FGEDGIFRHDRLRFRDFVDALEDV, for which the protein stability index was determined as 2.43.
For the variant FGEDGIFRHDRLRFRDFVDALEDL, the protein stability index came to 2.32.
For the variant FGEDGIFRHDRLRFRDFVDALEDI, the protein stability index was 2.29.
FGEDGIFRHDRLRFRDFVDALEDT: the protein stability index was 2.85.
For the variant FGEDGIFRHDRLRFRDFVDALEDD, the protein stability index came out at 3.5.
As to FGEDGIFRHDRLRFRDFVDALEDA, the protein stability index is 2.21.
Same read-out and setting: the same measure for FGEDGIFRHDRLRFRDFVDALEDK: 3.08.
For the variant FGEDGIFRHDRLRFRDFVDALEDW, the protein stability index was found to be 1.93.
Turning to FGEDGIFRHDRLRFRDFVDALEDP, the protein stability index is 2.51.
Same read-out and setting: with FGEDGIFRHDRLRFRDFVDALEDR the figure was 2.76; with FGEDGIFRHDRLRFRDFVDALEDN, 3.15.
Consider FGEDGIFRHDRLRFRDFVDALEDE, for which the protein stability index was 2.24.
As for FGEDGIFRHDRLRFRDFVDALEDC, the protein stability index turned out to be 3.48.
Regarding FGEDGIFRHDRLRFRDFVDALEDQ, the protein stability index worked out at 2.74.
As for FGEDGIFRHDRLRFRDFVDALEDM, the protein stability index turned out to be 2.2.
Take FGEDGIFRHDRLRFRDFVDALEDG: the protein stability index came out at 2.32.
In the case of FGEDGIFRHDRLRFRDFVDALEDY, the protein stability index worked out at 1.78.
FGEDGIFRHDRLRFRDFVDALEDF: the protein stability index came to 1.8.
Turning to FGEDGIFRHDRLRFRDFVDALEYS, the protein stability index is 2.62.
